Experimental data from US20190309055A1 (NORDIC BIOSCIENCE A S, published 2019).

How the values were obtained:
[1] = molecular target: T1, standard peptide KPGVISVMGT (last 10 amino acids of the type VI collagen α3 chain, 3168-3177); test: competitive ELISA, peptide specificity test
T1 construct: also called STD peptide; immunogenic peptide
T1 peptide: KPGVISVMGT

[2] = molecular target: T2, elongated peptide KPGVISVMGTA; test: competitive ELISA, serial 2-fold dilutions of peptide
T2 peptide: KPGVISVMGTA

[3] = molecular target: T3, truncated peptide KPGVISVMG; test: as above
T3 peptide: KPGVISVMG

B1: monoclonal antibody 10A3 (antibody, mouse IgG1, kappa, V domains shown)
VH: EVQLQQSGPVMVKPGTSVKTSCKASGYTFTDFNMNWVKQSHGKSLEWIGAINPHNGATSYNQKFSGKATLTVDKSSSTAYMELNSLTSDDSAVYYCARWGNGKNSWGQGTTLTVSS
VL: DVVMTQTPLSLPVNLGDQASISCRSSQRIVHSNGITFLEWYLQKPGQSPKLLIYRVSNRFSGVPDRFSGSGSGTDFTLKISRVEAEDLGLYYCFQGSHVPLTFGAGTRLELKR
notes: Mouse IgG1/kappa from hybridoma; also called the chosen antibody; HRP conjugated monoclonal antibody 10A3
**Q.** Does B1 bind [1]?
**A.** Result: binds

**Q.** Does B1 bind [2]?
**A.** Result: no binding

**Q.** Does B1 bind [3]?
**A.** Result: no binding
